Measured values: patent US20120253017A1 (published 2012)
One block for each binder: values may come before it.

B5: mouse Stem Cell Factor, 6xHIS tag (ligand, UniProt P20826 26-190, looked up)
chain: KEICGNPVTDNVKDITKLVANLPNDYMITLNYVAGMDVLPSHCWLRDMVIQLSLSLTTLLDKFSNISEGLSNYSIIDKLGKIVDDLVLCMEENAPKNIKESPKRPETRSFTPEEFFSIFNRSIDAFKDFMVASDTSDCVLSSTLGPEKDSRVSVTKPFMLPPVAA
notes: also called mSCF; murine SCF

Legend:
[1] = target: T1, human c-kit on HEL-92.1.7 and KU812 cells (human, UniProt P10721 26-976); assay: flow cytometry, HEL-92.1.7 cells (also YES on c-kit negative Jurkat)
T1 construct: whole, on cells
T1 sequence (P10721 26-976): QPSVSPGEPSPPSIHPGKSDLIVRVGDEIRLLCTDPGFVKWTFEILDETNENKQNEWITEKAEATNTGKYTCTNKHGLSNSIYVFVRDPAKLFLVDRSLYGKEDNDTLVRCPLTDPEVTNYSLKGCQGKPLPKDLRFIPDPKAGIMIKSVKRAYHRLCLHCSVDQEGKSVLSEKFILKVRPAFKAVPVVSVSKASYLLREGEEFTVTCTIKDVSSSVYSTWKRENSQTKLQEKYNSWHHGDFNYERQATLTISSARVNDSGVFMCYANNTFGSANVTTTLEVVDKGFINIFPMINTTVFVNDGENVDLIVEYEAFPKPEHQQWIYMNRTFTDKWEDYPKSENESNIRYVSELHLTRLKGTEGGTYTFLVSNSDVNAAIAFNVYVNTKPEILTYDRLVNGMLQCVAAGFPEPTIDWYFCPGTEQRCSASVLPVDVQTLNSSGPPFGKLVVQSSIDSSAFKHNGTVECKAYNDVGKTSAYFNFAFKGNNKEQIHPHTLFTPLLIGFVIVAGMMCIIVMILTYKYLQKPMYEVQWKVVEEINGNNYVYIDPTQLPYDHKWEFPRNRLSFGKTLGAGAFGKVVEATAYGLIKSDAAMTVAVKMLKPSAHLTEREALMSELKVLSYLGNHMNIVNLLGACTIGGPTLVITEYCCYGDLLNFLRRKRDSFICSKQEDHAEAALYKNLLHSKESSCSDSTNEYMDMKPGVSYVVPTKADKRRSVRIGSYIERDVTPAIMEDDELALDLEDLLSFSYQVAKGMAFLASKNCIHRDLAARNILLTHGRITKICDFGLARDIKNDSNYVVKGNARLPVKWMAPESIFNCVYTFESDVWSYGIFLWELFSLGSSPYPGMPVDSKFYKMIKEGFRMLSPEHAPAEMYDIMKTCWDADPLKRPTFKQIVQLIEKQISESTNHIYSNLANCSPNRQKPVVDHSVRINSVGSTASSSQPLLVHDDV

[2] = target: T2, human c-kit (recombinant, on BIAcore chip or beads) (human, UniProt P10721 26-524); assay: BIAcore 2000
T2 construct: extracellular domain; also called hcKIT; biotinylated human c-kit

[3] = target: B5; assay: BIAcore, SCF on CM5 chip
Description: (§1) Human and murine SCF were covalently attached to a CM5 BIAcore chip (GE Healthcare) in the presence of acetate pH 4 for both antigens. cKIT from various species were diluted to 1 μM in HBS-EP buffer (GE Healthcare) and run on the BIAcore in a 2-fold serial dilution to 1 nM.
(§2) Anti-human and anti-mouse SCF monoclonal antibodies (mAb) were used as controls (R&D systems).

[4] = target: T3, human Stem Cell Factor, 6xHIS tag (human, UniProt P21583 26-190, limits assumed); assay: BIAcore, SCF on CM5 chip
T3 construct: also called hSCF; human SCF
Description: as §1, §2

rat cKIT ECD = target: T4, rat cKIT ECD (rat, UniProt Q63116 25-526); assay: BIAcore, bad fit
T4 construct: cloned into pDOM38, which provides a human IgG1 Fc; also called rcKIT; rckit; not shown: Human IgG1 Fc (and any linker) supplied by vector pDOM38
T4 sequence (Q63116 entry or part of it limits assumed, form in doubt): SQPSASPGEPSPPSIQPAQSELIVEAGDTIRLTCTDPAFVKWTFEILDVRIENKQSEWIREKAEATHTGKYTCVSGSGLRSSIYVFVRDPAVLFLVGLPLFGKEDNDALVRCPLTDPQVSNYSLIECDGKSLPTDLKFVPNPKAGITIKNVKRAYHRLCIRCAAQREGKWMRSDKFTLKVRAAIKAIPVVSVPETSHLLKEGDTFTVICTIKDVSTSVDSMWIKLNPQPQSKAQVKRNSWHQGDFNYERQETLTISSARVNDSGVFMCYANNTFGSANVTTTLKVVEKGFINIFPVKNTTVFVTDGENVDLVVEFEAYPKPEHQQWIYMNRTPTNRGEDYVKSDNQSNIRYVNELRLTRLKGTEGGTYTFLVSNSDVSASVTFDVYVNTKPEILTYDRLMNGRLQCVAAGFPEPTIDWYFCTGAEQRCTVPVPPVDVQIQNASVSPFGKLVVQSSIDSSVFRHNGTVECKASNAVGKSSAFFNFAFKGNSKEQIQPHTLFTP

[5] = target: T2, human c-kit (recombinant, on BIAcore …); assay: BIAcore, c-kit on SA chip
Description: (§3) All unique dAb clones were expressed in 50 ml cultures (OnEX plus carbenicillin) overnight at 37° C. and purified on protein A (VH dAbs) or protein L (VK dAbs). Purified dAbs were passed over a SA BIAcore chip coated with either human or mouse c-kit at 1 μM to identify those dAbs that bound specifically to either human or murine c-kit.

[6] = target: T5, cyno c-kit (recombinant, on BIAcore chip) (cynomolgus monkey); assay: BIAcore, c-kit on SA chip
T5 chain: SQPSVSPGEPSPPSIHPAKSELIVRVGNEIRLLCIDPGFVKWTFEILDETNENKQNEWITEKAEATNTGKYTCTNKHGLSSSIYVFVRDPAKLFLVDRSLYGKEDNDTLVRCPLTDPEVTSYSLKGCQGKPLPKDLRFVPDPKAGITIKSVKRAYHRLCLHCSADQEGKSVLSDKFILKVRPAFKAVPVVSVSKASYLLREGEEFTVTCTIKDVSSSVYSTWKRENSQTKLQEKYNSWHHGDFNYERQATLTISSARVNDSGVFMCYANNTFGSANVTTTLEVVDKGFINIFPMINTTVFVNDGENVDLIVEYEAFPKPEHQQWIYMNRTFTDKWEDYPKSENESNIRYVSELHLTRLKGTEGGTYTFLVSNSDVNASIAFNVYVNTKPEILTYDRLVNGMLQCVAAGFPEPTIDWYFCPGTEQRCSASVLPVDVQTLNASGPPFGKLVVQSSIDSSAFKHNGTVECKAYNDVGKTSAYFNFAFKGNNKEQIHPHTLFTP
Description: as §3

[7] = target: T2, human c-kit (recombinant, on BIAcore …); assay: BIAcore 2000, 1 uM dAb
Description: All binding data was performed on a BIAcore 2000 instrument at 1 uM of dAb concentration.

[8] = target: T2, human c-kit (recombinant, on BIAcore …); assay: BIAcore
Mouse cKIT ECD-H6 = target: T6, Mouse cKIT ECD-H6 (mouse, UniProt P05532 25-527); assay: BIAcore, SCF on CM5 chip
T6 construct: extracellular domain; also called mouse c-kit (His tagged)
T6 sequence (looked up): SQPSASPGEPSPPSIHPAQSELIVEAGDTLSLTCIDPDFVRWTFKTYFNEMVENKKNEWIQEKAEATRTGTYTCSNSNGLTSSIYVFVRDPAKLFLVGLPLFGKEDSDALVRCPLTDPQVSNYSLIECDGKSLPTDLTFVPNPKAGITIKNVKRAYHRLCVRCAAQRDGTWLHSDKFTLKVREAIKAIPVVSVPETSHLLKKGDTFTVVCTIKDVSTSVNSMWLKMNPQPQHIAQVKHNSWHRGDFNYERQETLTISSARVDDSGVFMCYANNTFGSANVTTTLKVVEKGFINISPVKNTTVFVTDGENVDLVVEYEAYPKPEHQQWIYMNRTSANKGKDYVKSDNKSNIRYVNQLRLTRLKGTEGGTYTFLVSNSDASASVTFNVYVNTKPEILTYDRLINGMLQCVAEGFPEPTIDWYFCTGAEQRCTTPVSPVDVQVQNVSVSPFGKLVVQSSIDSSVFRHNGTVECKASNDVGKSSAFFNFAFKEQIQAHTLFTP
Description: as §1, §2

Human cKIT ECD-Fc = target: T7, Human cKIT ECD-Fc (human, UniProt P10721 26-524); assay: BIAcore, SCF on CM5 chip
T7 construct: extracellular domain; also called hcKIT; human c-KIT ECD-hIgG1 Fc fusion; not shown: human IgG1 Fc (pDOM38)
T7 sequence (P10721 26-524): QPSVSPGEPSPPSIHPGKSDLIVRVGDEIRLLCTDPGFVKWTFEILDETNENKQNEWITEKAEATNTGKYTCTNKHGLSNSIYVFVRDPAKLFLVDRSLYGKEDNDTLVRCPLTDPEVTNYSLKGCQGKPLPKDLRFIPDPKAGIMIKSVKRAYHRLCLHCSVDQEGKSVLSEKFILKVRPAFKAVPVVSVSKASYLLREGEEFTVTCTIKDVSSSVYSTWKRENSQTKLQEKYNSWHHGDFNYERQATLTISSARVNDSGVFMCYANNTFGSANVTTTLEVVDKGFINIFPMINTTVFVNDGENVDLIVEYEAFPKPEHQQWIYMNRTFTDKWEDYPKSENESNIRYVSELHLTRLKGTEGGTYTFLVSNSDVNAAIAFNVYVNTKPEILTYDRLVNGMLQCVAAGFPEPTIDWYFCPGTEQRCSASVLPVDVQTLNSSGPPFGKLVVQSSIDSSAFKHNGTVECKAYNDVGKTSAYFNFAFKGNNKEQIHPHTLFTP
Description: as §1, §2

[9] = target: T2, human c-kit (recombinant, on BIAcore …); assay: BIAcore; remark: listed apart in the source
[10] = target: Myosin Light Chain (on streptavidin chip; vMLC1-sulfotag); assay: BIAcore, bad fit
Chain of Myosin Light Chain (on streptavidin chip; vMLC1-sulfotag) (chain, as listed by the source): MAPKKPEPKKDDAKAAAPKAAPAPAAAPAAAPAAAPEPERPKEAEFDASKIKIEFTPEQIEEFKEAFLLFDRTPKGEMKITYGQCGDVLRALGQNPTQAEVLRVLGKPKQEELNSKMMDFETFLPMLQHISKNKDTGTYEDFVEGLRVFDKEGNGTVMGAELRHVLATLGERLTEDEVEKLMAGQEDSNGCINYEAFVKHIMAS

[11] = target: T2, human c-kit (recombinant, on BIAcore …); assay: BIAcore, bad fit

- binding result [1]: binds
- binding result [2]: no binding (tested: 1 uM)
B1: DOM28m-73 (other)
chain: EVQLLESGGGLVQPGGSLRLSCAASGFTFKHYSMNWVRQAPGKGLEWVSRISPSGVSTYYADSVKGRFTISRDNSKNTLYLQMNSLRAEDTAVYYCAKIMNSHKADEFDYWGQGTLVTVSS
notes: dAb, C-terminal FLAG tag (pDOM10)

- Kd [3]: 867 nM
- Kd [4]: 369 nM
B2: Cyno cKIT ECD-H6 (receptor)
chain: SQPSVSPGEPSPPSIHPAKSELIVRVGNEIRLLCIDPGFVKWTFEILDETNENKQNEWITEKAEATNTGKYTCTNKHGLSSSIYVFVRDPAKLFLVDRSLYGKEDNDTLVRCPLTDPEVTSYSLKGCQGKPLPKDLRFVPDPKAGITIKSVKRAYHRLCLHCSADQEGKSVLSDKFILKVRPAFKAVPVVSVSKASYLLREGEEFTVTCTIKDVSSSVYSTWKRENSQTKLQEKYNSWHHGDFNYERQATLTISSARVNDSGVFMCYANNTFGSANVTTTLEVVDKGFINIFPMINTTVFVNDGENVDLIVEYEAFPKPEHQQWIYMNRTFTDKWEDYPKSENESNIRYVSELHLTRLKGTEGGTYTFLVSNSDVNASIAFNVYVNTKPEILTYDRLVNGMLQCVAAGFPEPTIDWYFCPGTEQRCSASVLPVDVQTLNASGPPFGKLVVQSSIDSSAFKHNGTVECKAYNDVGKTSAYFNFAFKGNNKEQIHPHTLFTP

- Kd (rat cKIT ECD): 30 nM
- Kd [5]: 7200 nM
- Kd [6]: 29000 nM
B3: DOM28m-7 (other)
VH: EVQLLESGGGLVQPGGSLRLSCAASGFTFSNYAMGWVRQAPGKGLEWVSSISSSGFATYYADSVKGRFTISRDNSKNTLYLQMNSLRAEDTAVYYCAKSESRTFKAFDYWGQGTLVTVSS
notes: VH dAb, C-terminal FLAG tag (pDOM10); also called DOM28m-007

- Kd (rat cKIT ECD): 25 nM
- Kd [5]: 2900 nM
- Kd [6]: 2720 nM
- Kd [7]: 6000 nM
- Kd [8]: 6000 nM
B4: DOM28m-23 (other)
VH: EVRLLESGGGLVQPGGSLRLSCAASGFTFRDYVMVWVRQAPGKGLEWVSAIAPTGGYTYYADSVKGRFTISRDNSKNTLYLQMNSLRAEDTAVYYCAKSLRTWLSEDLPFDYWGQGTLVTVSS
notes: VH dAb, C-terminal FLAG tag (pDOM10); also called DOM28m-023

Binder: B5
- binding result (Mouse cKIT ECD-H6): no binding (tested: 1 µM)
- Kd (Human cKIT ECD-Fc): 17.7 nM

- Kd [9]: 318 nM
- Kd [10]: 0.116 nM
B6: DMS5057 (chimeric MLC mAb-cKIT dAb, DOM28m-109) (bispecific antibody)
heavy: not shown
light: DIVMSQSPSSLAVSAGDKVTMSCKSSQSLLYSRTRKNYLAWYQQKPGQSPKLLIYWASTRQSGVPDRFTGSGSGTDFTLTISSVQAEDLAVYYCKQSYNLFTFGSGTKLEIKRTVAAPSVFIFPPSDEQLKSGTASVVCLLNNFYPREAKVQWKVDNALQSGNSQESVTEQDSKDSTYSLSSTLTLSKADYEKHKVYACEVTHQGLSSPVTKSFNRGEC

- Kd [11]: 8 nM
- Kd [10]: 10 nM
B7: DMS5059 (chimeric MLC mAb-cKIT dAb, DOM28m-114) (bispecific antibody)
heavy: not shown
light: DIVMSQSPSSLAVSAGDKVTMSCKSSQSLLYSRTRKNYLAWYQQKPGQSPKLLIYWASTRQSGVPDRFTGSGSGTDFTLTISSVQAEDLAVYYCKQSYNLFTFGSGTKLEIKRTVAAPSVFIFPPSDEQLKSGTASVVCLLNNFYPREAKVQWKVDNALQSGNSQESVTEQDSKDSTYSLSSTLTLSKADYEKHKVYACEVTHQGLSSPVTKSFNRGEC
